Patent US8287851B2, “Use of interleukin 17E for the treatment of cancer” (Lorus Therapeutics Inc., priority 2005, dated 2012)

Tested on: human pancreatic cancer MiaPaCa-2 xenograft
Experiment: Antitumour efficacy in human pancreatic cancer MiaPaCa-2 xenograft model
Format: in vivo, CD-1 athymic nude mice
Conditions: 0.04 mg/kg murine IL-17E i.p. every third day
Procedure: The ability of murine interleukin 17E to inhibit human pancreatic cancer growth was examined as follows. Human pancreatic cancer MiaPaCa-2 cells (10^6 cells in 100 μl PBS) were subcutaneously implanted into the right flank of CD-1 athymic nude mice. Murine IL-17E was obtained from R&D Systems, Inc., and is present in the preparation as a disulphide linked homodimer. The predominant form of IL-17E in this preparation is the form starting at Val 17 of the murine sequence provided as GenBank Accession No. NP 542767. When tumours reached a volume of 50-100 mm^3, mice were randomly separated into two groups of 8 animals and treated as follows:
Group I: […] of PBS intraperitoneally (i.p.) per mouse every day until the endpoint of the experiment; and
Group II: 0.04 mg/kg of murine IL-17E intraperitoneally (i.p.) every third day until the endpoint of the experiment.
The size of the tumours was measured by caliper measurements throughout the experiment. Tumour weight was determined from tumour tissue surgically excised from the animal on the last day of the experiment. […]
25 μg of murine or human IL-17E were reconstituted with 200 μl PBS. […] Samples were separated by electrophoresis on SDS-PAGE gels and analyzed by either Western blotting or silver staining to show a reduction in IL-17E levels in immunodepleted samples. […]

B1: murine IL-17E: Murine IL-17E from R&D Systems; predominant form starting at Val 17 of GenBank NP 542767 (protein)
chain: VSLRIQEGCSHLPSCCPSKEQEPPEEWLKWSSASVSPPEPLSHTHHAESCRASKDGPLNSRAISPWSYELDRDLNRVPQDLYHARCLCPHCVSLQTGSHMDPLGNSVPLYHNQTVFYRRPCHGEEGTHRRYCLERRLYRVSLACVCVRPRVMA
- tumour growth (tumour volume and weight) as compared to PBS: significantly inhibit tumour growth
